B1: wild-type recombinant murine NBD1 (nucleotide binding domain 1 of CFTR, spanning sequence 389−673) (domain or fragment, mouse, UniProt P26361 389-673, looked up)
chain: TTGIIMENVTAFWEEGFGELLEKVQQSNGDRKHSSDENNVSFSHLCLVGNPVLKNINLNIEKGEMLAITGSTGSGKTSLLMLILGELEASEGIIKHSGRVSFCSQFSWIMPGTIKENIIFGVSYDEYRYKSVVKACQLQQDITKFAEQDNTVLGEGGVTLSGGQRARISLARAVYKDADLYLLDSPFGYLDVFTEEQVFESCVCKLMANKTRILVTSKMEHLRKADKILILHQGSSYFYGTFSELQSLRPDFSSKLMGYDTFDQFTEERRSSILTETLRRFSVDD
B2: wild-type human NBD1 (spanning sequence 389−673) (domain or fragment, UniProt P13569 389-673, looked up)
chain: TTEVVMENVTAFWEEGFGELFEKAKQNNNNRKTSNGDDSLFFSNFSLLGTPVLKDINFKIERGQLLAVAGSTGAGKTSLLMVIMGELEPSEGKIKHSGRISFCSQFSWIMPGTIKENIIFGVSYDEYRYRSVIKACQLEEDISKFAEKDNIVLGEGGITLSGGQRARISLARAVYKDADLYLLDSPFGYLDVLTEKEIFESCVCKLMANKTRILVTSKMEHLKKADKILILHEGSSYFYGTFSELQNLQPDFSSKLMGCDSFDQFSAERRNSILTETLHRFSLEG
B4: ΔF508 mutated recombinant murine NBD1 (spanning sequence 389−673) (domain or fragment, mouse, UniProt P26361 389-673, looked up)
chain: TTGIIMENVTAFWEEGFGELLEKVQQSNGDRKHSSDENNVSFSHLCLVGNPVLKNINLNIEKGEMLAITGSTGSGKTSLLMLILGELEASEGIIKHSGRVSFCSQFSWIMPGTIKENIIGVSYDEYRYKSVVKACQLQQDITKFAEQDNTVLGEGGVTLSGGQRARISLARAVYKDADLYLLDSPFGYLDVFTEEQVFESCVCKLMANKTRILVTSKMEHLRKADKILILHQGSSYFYGTFSELQSLRPDFSSKLMGYDTFDQFTEERRSSILTETLRRFSVDD

Common to all, as to test: SPR
Experiment [1] addresses T1, recombinant α-subunit of human protein kinase CK2 (human, UniProt P68400 1-391).
Experiment [2] addresses T1, recombinant α-subunit of human protein …. This is another data set of the same source.
Experiment [3] has the same target. This is another data set of the same source.
Experiment [4] deals with B4.
Experiment [5] deals with B1.
For experiment [6], the target named is B2.

Where two headings read alike, the source gives them in different places.

As usually defined, the Kd is the constant that tells how readily two partners part at equilibrium. Broadly, the koff is the rate constant with which the complex falls apart. As usually defined, the kon is a measure of how fast the partners come together.

T1 sequence (P68400 whole entry): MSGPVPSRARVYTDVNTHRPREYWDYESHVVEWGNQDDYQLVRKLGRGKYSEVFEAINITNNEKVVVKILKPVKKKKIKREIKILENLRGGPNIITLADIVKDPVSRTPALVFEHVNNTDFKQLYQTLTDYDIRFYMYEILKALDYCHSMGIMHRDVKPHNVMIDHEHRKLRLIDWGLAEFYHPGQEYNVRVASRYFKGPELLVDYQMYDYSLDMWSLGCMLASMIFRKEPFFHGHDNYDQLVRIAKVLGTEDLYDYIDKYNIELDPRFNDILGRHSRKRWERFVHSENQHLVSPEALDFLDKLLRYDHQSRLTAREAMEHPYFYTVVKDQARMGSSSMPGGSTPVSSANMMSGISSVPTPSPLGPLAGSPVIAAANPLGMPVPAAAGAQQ

Turning to B1, in experiment [1], the Kd was found to be 2470 nM, the koff came out at 0.000335 s⁻¹ and the kon is 135 M⁻¹ s⁻¹.
For the molecule IIGVSYDEYRYR (peptide, UniProt P13569 506-518, looked up) [CFTR peptide 506−518 ΔF], the binding result in experiment [2] is “binds”.
For B2, the binding result in experiment [3] was “binds”.

B3: recombinant β-subunit of human protein kinase CK2 (natural protein)
chain: not shown
With B3, the binding result in experiment [4], in experiment [5], in experiment [2] and in experiment [6] was “binds” throughout.
With B4, in experiment [1], the Kd was 91.2 nM, the koff was found to be 8.77e-05 s⁻¹ and the kon came out at 961 M⁻¹ s⁻¹.
